Measurements published in patent US20200231684A1 (published 2020).

B1: Antibody C1 (antibody, human IgG1, kappa, L234A L235A, V domains shown)
VH: QVQLQESGPGLVAPSETLSLTCTVSGFSLTDYAVHWIRQFPGKGLEWIGVIWSDGSTDFNAPFKSRVTISKDTSKNQVSFKLSSVTTDDTAVYYCARKGGYSGSWFAYWGQGTLVTVSS
VL: EIVMTQSPATLSVSPGVRATLSCKASQDVGTNVLWYQQKPGQAPRPLIYSASYRHSGIPARFSGSGSGTEFTLTISSLQSEDFAEYYCQQYSRYPLTFGQGTKLEIKR
B2: Antibody C2 (antibody, human IgG1, kappa, L234A L235A, V domains shown)
VH: QVQLQESGPGLVKPSETLSITCTVSGFSLTDYAVHWIRQPPGKGLEWIGVIWSDGSTDYNAPFKSRVTISKDNSKSQVSFKMSSVTADDTAVYYCARKGGYSGSWFAYWGQGTLVTVSS
VL: EIVMTQSPATLSVSPGVRATLSCKASQDVGTNVLWYQQKPGQAPRPLIYSASYRHSGIPDRFSGSGSGTEFTLTISSLQSEDFAVYYCQQYSRYPLTFGQGTKLEIKR
B3: Antibody C3 (antibody, human IgG1, kappa, L234A L235A, V domains shown)
VH: QVQLQESGPGLVAPSETLSLTCTVSGFSLTDYAVHWIRQFPGKGLEWIGVIWSDGSTDFNAPFKSRVTISKDTSKNQVSFKLSSVTTDDTAVYYCARKGGYSGSWFAYWGQGTLVTVSS
VL: EIVMTQSPATLSVSPGVRATLSCKASQDVGTNVLWYQQKPGQAPRPLIYSASYRHSGIPDRFSGSGSGTEFTLTISSLQSEDFAVYYCQQYSRYPLTFGQGTKLEIKR
B4: chimeric antibody C81A1 (antibody, V domains shown)
VH: QVQLKESGPGLVAPSQSLFITCTVSGFSLSSYEINWVRQVPGKGLEWLGVIWTGITTNYNSALISRLSISKDNSKSLVFLKMNSLQTDDTAIYYCARGTGTGFYYAMDYWGQGTSVTVSS
VL: DIQMTQTTSSLSASLGDRVTISCRASQDIYKYLNWYQQKPDGTLKLLIYYTSGLHSGVPSRFSGSGSGTDFSLTISNLEPEDIATYFCQQDSKFPWTFGGDTKLEIK
notes: Mouse variable domains of 81A1 on human constant domains (hu IgG1KO/kappa); also called chimeric 81A1

How the values were obtained:
human IL-36R on cells [1] = target: T1, human IL-36R on cells (human, UniProt Q9HB29 20-575); experiment: cell-based or functional assay
T1 sequence (looked up): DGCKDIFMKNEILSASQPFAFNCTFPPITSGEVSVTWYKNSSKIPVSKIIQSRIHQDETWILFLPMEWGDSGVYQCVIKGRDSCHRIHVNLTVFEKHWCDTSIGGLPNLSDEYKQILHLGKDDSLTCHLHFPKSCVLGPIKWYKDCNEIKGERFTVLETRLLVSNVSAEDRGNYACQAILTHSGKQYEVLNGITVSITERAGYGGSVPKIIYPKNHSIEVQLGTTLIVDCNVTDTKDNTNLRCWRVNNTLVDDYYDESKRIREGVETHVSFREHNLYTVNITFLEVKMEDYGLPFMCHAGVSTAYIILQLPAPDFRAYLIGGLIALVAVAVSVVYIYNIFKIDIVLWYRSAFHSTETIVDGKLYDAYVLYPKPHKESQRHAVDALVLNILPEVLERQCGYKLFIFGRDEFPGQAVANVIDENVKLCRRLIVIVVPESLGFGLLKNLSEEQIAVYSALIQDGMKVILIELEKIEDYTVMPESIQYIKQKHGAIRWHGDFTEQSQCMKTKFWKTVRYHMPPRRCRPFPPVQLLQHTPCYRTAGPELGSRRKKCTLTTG

human IL-36R on cells [2] = target: T1, human IL-36R on cells; experiment: cell-based or functional assay; remark: listed apart in the source
human IL-1R1 = target: T2, human IL-1R1 (human, UniProt P14778 18-336, limits assumed); experiment: BLI (Fortebio Octet), antibody injected over antigen surface
T2 construct: also called IL-1RI
T2 sequence (looked up): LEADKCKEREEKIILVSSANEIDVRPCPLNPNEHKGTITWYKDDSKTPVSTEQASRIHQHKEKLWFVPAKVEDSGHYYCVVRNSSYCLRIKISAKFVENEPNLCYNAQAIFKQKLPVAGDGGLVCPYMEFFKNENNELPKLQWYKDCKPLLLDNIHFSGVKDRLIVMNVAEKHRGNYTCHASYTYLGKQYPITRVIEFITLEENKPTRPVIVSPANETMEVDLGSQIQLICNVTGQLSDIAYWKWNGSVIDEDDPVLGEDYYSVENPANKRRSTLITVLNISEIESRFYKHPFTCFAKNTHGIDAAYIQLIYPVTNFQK
Procedure: (§1) B) Molecular selectivity over mouse IL-36R and human IL-1R1 The mouse and chimeric anti-IL-36R antibodies were also injected over either a mouse IL-36R or a human IL-1R1 surface at a concentration of 100 nM. The binding signal to mouse IL-36R and to human IL-1R1 for these antibodies measured using the Fortebio Octet (Fortebio, Menlo Park, Calif.) is zero, which indicates these antibodies selectively bind to human IL-36R.

mouse IL-36R = target: T3, mouse IL-36R (mouse, UniProt Q9ERS7 22-338); experiment: as above
T3 sequence (looked up): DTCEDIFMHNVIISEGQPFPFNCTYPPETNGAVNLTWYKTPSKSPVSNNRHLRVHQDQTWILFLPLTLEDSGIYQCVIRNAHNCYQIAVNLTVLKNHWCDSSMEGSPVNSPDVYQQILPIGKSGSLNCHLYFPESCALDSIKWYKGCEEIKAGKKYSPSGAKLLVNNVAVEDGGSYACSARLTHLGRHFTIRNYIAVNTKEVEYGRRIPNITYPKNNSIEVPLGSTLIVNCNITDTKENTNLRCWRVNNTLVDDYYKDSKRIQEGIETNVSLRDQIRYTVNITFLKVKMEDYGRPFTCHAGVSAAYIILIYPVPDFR
Procedure: as §1

Binder	IC90, pNFκB, NCI/ADR-RES cells, trun-IL-36a (human IL-36R on cells [1]) [nM]	IC90, pNFκB, NCI/ADR-RES cells, trun-IL-36b (human IL-36R on cells [1]) [nM]	IC90, pNFκB, NCI/ADR-RES cells, trun-IL-36g (human IL-36R on cells [1]) [nM]	IC90, IL-8 release, human primary keratinocytes (NHK), trun-IL-36a (human IL-36R on cells [2]) [nM]	IC90, IL-8 release, human primary keratinocytes (NHK), trun-IL-36b (human IL-36R on cells [2]) [nM]	IC90, IL-8 release, human primary keratinocytes (NHK), trun-IL-36g (human IL-36R on cells [2]) [nM]	IC90, pNFκB, human primary keratinocytes (NHK), trun-IL-36b (human IL-36R on cells [2]) [nM]	binding result (human IL-1R1)	binding result (mouse IL-36R)
B1	4.6	5.5	3.4						
B2	9.7	8.6	6.1						
B3	9.8	5.6	5.1						
B4				23.4	87	1.2	7.1	no binding (tested: 100 nM)	no binding (tested: 100 nM)
